One molecule from patent publication US9187567 (PARKINSON S INSTITUTE, dated 2015) can be followed below.

Holding throughout (test): 14-3-3 overlay (far-western) assay
In assay [1] the target is T1, GFP tagged, full length LRRK2 I2020T (human, UniProt Q5S007 1-2527).
T1 construct: mature; also called 12020T (so in the source); not shown: GFP tag, amino-terminal

For assay [2], the target named is T2, GFP tagged, full length LRRK2 Ser935Ala (human, UniProt Q5S007 1-2527).
T2 construct: mature; also called S935A; not shown: GFP tag, amino-terminal
T2 sequence (Q5S007 whole entry S935A): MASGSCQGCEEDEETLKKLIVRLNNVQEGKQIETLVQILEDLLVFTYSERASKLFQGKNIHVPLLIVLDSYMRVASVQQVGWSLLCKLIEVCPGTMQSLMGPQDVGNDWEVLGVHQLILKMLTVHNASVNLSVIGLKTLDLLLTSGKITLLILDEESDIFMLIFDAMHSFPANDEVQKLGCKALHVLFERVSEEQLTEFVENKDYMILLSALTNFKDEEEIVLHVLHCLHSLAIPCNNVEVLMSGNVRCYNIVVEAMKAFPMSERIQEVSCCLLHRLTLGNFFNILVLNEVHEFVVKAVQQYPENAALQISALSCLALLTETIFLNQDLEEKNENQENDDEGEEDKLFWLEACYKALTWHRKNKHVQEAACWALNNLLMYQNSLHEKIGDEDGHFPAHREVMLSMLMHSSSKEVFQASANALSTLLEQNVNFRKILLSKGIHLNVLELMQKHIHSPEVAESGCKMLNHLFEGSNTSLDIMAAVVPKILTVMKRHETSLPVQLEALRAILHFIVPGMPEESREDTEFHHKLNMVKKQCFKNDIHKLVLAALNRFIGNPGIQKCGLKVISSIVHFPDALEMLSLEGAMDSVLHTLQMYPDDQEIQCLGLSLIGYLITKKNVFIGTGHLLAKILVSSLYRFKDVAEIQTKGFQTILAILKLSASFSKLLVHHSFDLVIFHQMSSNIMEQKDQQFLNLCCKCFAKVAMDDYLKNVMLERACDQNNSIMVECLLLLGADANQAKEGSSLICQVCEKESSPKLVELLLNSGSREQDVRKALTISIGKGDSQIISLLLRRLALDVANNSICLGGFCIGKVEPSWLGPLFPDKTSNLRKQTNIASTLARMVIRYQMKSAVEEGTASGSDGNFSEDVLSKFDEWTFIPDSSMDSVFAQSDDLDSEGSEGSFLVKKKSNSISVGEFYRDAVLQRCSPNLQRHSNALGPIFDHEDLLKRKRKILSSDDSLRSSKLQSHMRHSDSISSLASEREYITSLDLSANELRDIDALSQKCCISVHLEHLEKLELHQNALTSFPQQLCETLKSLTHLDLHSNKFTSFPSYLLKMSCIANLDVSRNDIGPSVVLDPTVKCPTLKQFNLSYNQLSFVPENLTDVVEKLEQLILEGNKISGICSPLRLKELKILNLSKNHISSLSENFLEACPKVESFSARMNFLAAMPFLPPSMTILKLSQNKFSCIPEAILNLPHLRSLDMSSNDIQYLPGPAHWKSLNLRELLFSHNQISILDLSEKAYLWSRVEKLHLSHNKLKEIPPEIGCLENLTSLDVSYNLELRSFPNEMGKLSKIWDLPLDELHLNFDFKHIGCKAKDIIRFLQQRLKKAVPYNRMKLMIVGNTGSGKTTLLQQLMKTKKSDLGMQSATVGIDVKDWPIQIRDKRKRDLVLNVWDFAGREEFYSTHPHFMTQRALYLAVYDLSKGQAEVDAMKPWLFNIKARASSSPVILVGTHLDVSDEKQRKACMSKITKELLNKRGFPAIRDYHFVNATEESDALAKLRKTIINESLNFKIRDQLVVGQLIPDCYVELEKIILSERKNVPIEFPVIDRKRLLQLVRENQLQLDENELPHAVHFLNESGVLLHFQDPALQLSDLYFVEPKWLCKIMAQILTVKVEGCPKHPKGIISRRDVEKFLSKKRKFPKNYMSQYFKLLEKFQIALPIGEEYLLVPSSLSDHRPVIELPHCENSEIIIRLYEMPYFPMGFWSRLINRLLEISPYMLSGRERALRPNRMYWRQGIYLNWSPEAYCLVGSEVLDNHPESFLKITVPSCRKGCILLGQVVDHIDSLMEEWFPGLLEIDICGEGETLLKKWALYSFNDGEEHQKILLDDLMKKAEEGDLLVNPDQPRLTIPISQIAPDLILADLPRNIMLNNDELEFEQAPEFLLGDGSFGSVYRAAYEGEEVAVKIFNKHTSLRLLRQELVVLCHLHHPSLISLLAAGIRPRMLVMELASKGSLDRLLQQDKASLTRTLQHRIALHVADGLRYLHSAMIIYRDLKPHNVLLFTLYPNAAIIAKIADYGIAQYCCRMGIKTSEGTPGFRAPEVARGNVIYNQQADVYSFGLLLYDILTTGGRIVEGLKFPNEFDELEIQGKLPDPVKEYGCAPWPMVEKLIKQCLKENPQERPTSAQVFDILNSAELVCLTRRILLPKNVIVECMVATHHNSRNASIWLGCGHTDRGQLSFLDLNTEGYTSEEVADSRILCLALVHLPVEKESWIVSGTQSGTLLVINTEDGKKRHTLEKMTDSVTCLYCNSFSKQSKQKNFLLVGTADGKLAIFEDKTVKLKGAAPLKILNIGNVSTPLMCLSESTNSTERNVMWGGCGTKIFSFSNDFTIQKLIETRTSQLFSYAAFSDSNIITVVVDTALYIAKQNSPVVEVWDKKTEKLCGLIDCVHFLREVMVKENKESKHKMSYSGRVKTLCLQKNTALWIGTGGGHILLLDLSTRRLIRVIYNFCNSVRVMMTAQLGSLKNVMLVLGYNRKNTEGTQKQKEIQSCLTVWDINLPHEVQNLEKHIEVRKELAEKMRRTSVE

Assay [3] deals with T3, GFP tagged, full length LRRK2 Ser973Ala (human, UniProt Q5S007 1-2527).
T3 construct: mature; also called S973A; GFP-LRRK2-S973A; not shown: GFP tag, amino-terminal
T3 sequence (Q5S007 whole entry S973A): as the sequence (Q5S007 whole entry S935A) above, with A935S, S973A counted along it

Assay [4] has as its target T4, GFP tagged, full length LRRK2 Ser955Ala (human, UniProt Q5S007 1-2527).
T4 construct: mature; also called S955A; GFP-LRRK2-S955A; not shown: GFP tag, amino-terminal

Assay [5] concerns the target T5, GFP tagged, full length LRRK2 Ser910Ala (human, UniProt Q5S007 1-2527).
T5 construct: mature; also called S910A; not shown: GFP tag, amino-terminal

Assay [6] deals with T6, GFP tagged, full length LRRK2 from cells treated with 1 µM LRRK2-IN1 for 90 minutes (human, UniProt Q5S007 1-2527, Serines 910, 935, 955 and 973 dephosphorylated by LRRK2-IN1 treatment of the cells).
T6 construct: mature; Same polypeptide as m10; It differs only in phosphorylation state; also called LRRK2-IN1 treated LRRK2; not shown: GFP tag, amino-terminal
T6 sequence (Q5S007 whole entry): as the sequence (Q5S007 whole entry S935A) above, with A935S counted along it

T4 sequence (Q5S007 whole entry S955A): as the sequence (Q5S007 whole entry S935A) above, with A935S, S955A counted along it
T5 sequence (Q5S007 whole entry S910A): as the sequence (Q5S007 whole entry S935A) above, with S910A, A935S counted along it
T1 sequence (Q5S007 whole entry I2020T): as the sequence (Q5S007 whole entry S935A) above, with A935S, I2020T counted along it

B1: LiCOR Dyelight labelled 14-3-3 protein (recombinant, His tagged BMH1) (other, UniProt P29311 1-267, looked up)
chain: MSTSREDSVYLAKLAEQAERYEEMVENMKTVASSGQELSVEERNLLSVAYKNVIGARRASWRIVSSIEQKEESKEKSEHQVELICSYRSKIETELTKISDDILSVLDSHLIPSATTGESKVFYYKMKGDYHRYLAEFSSGDAREKATNASLEAYKTASEIATTELPPTHPIRLGLALNFSVFYYEIQNSPDKACHLAKQAFDDAIAELDTLSEESYKDSTLIMQLLRDNLTLWTSDMSESGQAEDQQQQQQHQQQQPPAAAEGEAPK
modifications: fluorescent dye label (LiCOR Dyelight)
notes: also called fluorescent dye labeled recombinant 14-3-3; not shown: His tag
For B1, the binding result in assay [1] is “no binding”; in assay [2], “no binding”; in assay [3] it was “binds”; in assay [4], “binds”; in assay [5], “no binding”; in assay [6], “binds”.
